Reference: paper PMC11879086, “Identification and characterization of a human MORC2 DNA binding region that is required for gene silencing” (Nucleic Acids Research, 2024)

Columns and labels:
[1] = system: MBP-MORC2 wild-type (Homo sapiens); assay: pull-down; conditions: FA/EMSA: 50 mM NaCl, 3 mM MgCl2, 20 mM Na-HEPES pH 7.4, 1 mM TCEP, 10% glycerol, 0.025 mM ZnCl2, 50 ug/ml BSA, room temperature; 1 nM nucleic acid (FA) or 20 nM
[2] = target: T1, MORC2 dephosphorylated (wild-type) (Homo sapiens) (UniProt Q9Y6X9); assay: fluorescence anisotropy; conditions: apo; FA/EMSA: 50 mM NaCl, 3 mM MgCl2, 20 mM Na-HEPES pH 7.4, 1 mM TCEP, 10% glycerol, 0.025 mM ZnCl2, 50 ug/ml BSA, room temperature; 1 nM nucleic acid (FA) or 20 nM
T1 sequence: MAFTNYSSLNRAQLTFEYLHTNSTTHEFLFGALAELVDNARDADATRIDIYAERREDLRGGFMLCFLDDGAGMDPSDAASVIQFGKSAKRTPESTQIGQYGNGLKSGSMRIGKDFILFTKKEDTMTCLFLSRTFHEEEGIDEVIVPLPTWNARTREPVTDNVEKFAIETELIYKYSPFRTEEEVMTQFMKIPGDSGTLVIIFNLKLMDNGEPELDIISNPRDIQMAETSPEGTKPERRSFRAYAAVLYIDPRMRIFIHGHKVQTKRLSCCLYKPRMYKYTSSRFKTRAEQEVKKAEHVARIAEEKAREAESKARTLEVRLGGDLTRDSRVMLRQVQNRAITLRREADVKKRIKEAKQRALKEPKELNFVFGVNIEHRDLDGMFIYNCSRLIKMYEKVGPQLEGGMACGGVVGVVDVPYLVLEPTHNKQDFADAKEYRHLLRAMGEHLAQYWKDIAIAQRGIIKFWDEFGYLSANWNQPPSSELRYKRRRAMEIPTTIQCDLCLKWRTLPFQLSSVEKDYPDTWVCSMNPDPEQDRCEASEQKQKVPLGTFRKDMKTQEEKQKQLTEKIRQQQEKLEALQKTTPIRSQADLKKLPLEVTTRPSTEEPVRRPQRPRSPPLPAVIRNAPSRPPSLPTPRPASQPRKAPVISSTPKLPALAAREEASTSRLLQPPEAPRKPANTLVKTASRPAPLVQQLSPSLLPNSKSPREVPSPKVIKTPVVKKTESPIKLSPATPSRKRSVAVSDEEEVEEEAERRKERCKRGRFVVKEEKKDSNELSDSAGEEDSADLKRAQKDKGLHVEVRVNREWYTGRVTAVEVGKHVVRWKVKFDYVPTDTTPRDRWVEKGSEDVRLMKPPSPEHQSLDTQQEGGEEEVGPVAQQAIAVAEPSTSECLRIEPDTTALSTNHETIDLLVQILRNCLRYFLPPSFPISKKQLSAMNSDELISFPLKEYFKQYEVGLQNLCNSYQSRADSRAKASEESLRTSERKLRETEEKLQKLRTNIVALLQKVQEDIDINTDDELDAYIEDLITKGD

[3] = target: T2, MORC2 dephosphorylated (wild-type) (Homo sapiens, UniProt Q9Y6X9 1-1032); assay: fluorescence anisotropy; apo; FA/EMSA: 50 mM NaCl, 3 mM MgCl2, 20 mM Na-HEPES pH 7.4, 1 mM TCEP, 10% glycerol, 0.025 mM ZnCl2, 50 ug/ml BSA, room temperature; 1 nM nucleic acid (FA) or 20 nM DNA (EMSA); conditions: protein: recombinant, tags: tag removed by TEV, chain copies: 2, label: 5'-6-FAM
T2 sequence: T1 sequence

[4] = target: T2, MORC2 dephosphorylated (wild-type); assay: fluorescence anisotropy; apo ('5 or less'); FA/EMSA: 50 mM NaCl, 3 mM MgCl2, 20 mM Na-HEPES pH 7.4, 1 mM TCEP, 10% glycerol, 0.025 mM ZnCl2, 50 ug/ml BSA, room temperature; 1 nM nucleic acid (FA) or 20 nM DNA (EMSA); conditions: protein: recombinant; tags: tag removed by TEV; chain copies: 2; label: 5'-6-FAM; blunt
[5] = target: the molecule itself; assay: SEC-MALS; full-length MORC2, 2 mg/ml, 150 mM NaCl, 3 mM MgCl2, 20 mM Na-HEPES pH 7.4, 0.5 mM TCEP, 1.5% glycerol, 0.025 mM ZnCl2, without AMP-PNP; Wyatt 030 column
[6] = target: the molecule itself; assay: SEC-MALS; coiled coil 3, 1.5 mg/ml, 150 mM NaCl, 3 mM MgCl2, 20 mM Na-HEPES pH 7.4, 0.5 mM TCEP, 1.5% glycerol, 0.025 mM ZnCl2; Wyatt 010 column
[7] = target: T2, MORC2 dephosphorylated (wild-type); assay: fluorescence anisotropy; apo; Hill slope 0.6; FA/EMSA: 50 mM NaCl, 3 mM MgCl2, 20 mM Na-HEPES pH 7.4, 1 mM TCEP, 10% glycerol, 0.025 mM ZnCl2, 50 ug/ml BSA, room temperature; 1 nM nucleic acid (FA) or 20 nM DNA (EMSA); conditions: protein: recombinant; tags: tag removed by TEV; chain copies: 2; label: 5'-6-FAM on oligo 3; four-way junction of 4 strands

Q: Which binding signal (fold less than circular) [1] does the source give for pUC19 linear here?
A: 30

Q: With “ATATCGATGTATATATCTGACACGTGCCTGGAGACTAGGGAGTAATCCCCTTGGCGGTTAAAACGCGGGGGACAGCGCGTACGTGCGTTTAAGCGGTGCTAGAGCTGTCTACGACCAATTGAGCGGCCTCGGCACCGGGATTCTGATAT (double strand) [Nucleosome on 2-601-2 DNA]” as the molecule, how does the Kd [2] read?
A: 16 nM

B1: Random 25mer dsDNA (dsDNA)
DNA 1: TCCATCAGAATTCGGATGAACTCGG
DNA 2: CCGAGTTCATCCGAATTCTGATGGA
Q: How did the Kd ([3]; blunt) turn out when B1 was run?
A: 21 ± 2 nM

B2: Random 45mer dsDNA (dsDNA)
DNA 1: GCCGCGTATAGGGTCCATCAGAATTCGGATGAACTCGGTGTGAAG
DNA 2: CTTCACACCGAGTTCATCCGAATTCTGATGGACCCTATACGCGGC
Q: B2 was tested. Which Kd ([3]; blunt) did it give?
A: 11 ± 3 nM

B3: Random 35mer ssRNA (ssRNA)
RNA: AUAGGGUCCAUCAGAAUUCGGAUGAACUCGGUGUG
Q: With B3 as the molecule, how does the Kd [3] read?
A: 49 ± 6 nM

B4: 149 bp Widom 601 dsDNA (2-601-2) (dsDNA)
DNA 1: ATATCGATGTATATATCTGACACGTGCCTGGAGACTAGGGAGTAATCCCCTTGGCGGTTAAAACGCGGGGGACAGCGCGTACGTGCGTTTAAGCGGTGCTAGAGCTGTCTACGACCAATTGAGCGGCCTCGGCACCGGGATTCTGATAT
DNA 2: ATATCAGAATCCCGGTGCCGAGGCCGCTCAATTGGTCGTAGACAGCTCTAGCACCGCTTAAACGCACGTACGCGCTGTCCCCCGCGTTTTAACCGCCAAGGGGATTACTCCCTAGTCTCCAGGCACGTGTCAGATATATACATCGATAT
Q: Which Kd [4] does the source give for B4 here?
A: < 5 nM

B5: full-length human MORC2 (dephosphorylated, wild-type) (natural protein, UniProt Q9Y6X9 1-1032, looked up)
chain: T1 sequence
notes: Cloned into vector 438-B (N-terminal His6-TEV) and into 438-C (N-terminal His6-MBP-TEV); Heterogeneous phosphorylation from insect cells was removed by phosphatase treatment; also called wild-type MORC2; full-length MORC2; not shown: His6, N-terminal, cleaved
Q: With B5 as the molecule, how does the “stoichiometry N” value [5] read?
A: 2

B6: MORC2 coiled coil 3 (residues 900-1032) (domain or fragment, human, UniProt Q9Y6X9 900-1032, looked up)
chain: ALSTNHETIDLLVQILRNCLRYFLPPSFPISKKQLSAMNSDELISFPLKEYFKQYEVGLQNLCNSYQSRADSRAKASEESLRTSERKLRETEEKLQKLRTNIVALLQKVQEDIDINTDDELDAYIEDLITKGD
notes: also called CC3; isolated MORC2 C-terminus; source: E. coli BL21 (DE3) RIL, purified (HisTrap, TEV cleavage, S75 SEC); not shown: His6, N-terminal, cleaved
Q: With B6 as the molecule, how does the “stoichiometry N” value [6] read?
A: 2

B7: Cruciform DNA (structured_DNA)
DNA 1: CCCTATAACCCCTGCATTGAATTCCAGTCTGATAA
DNA 2: GTAGTCGTGATAGGTGCAGGGGTTATAGGG
DNA 3: AACAGTAGCTCTTATTCGAGCTCGCGCCCTATCACGACTA
DNA 4: TTTATCAGACTGGAATTCAAGCGCGAGCTCGAATAAGAGCTACTGT
Q: B7 was tested. Which Kd [7] did it give?
A: 78 ± 12 nM

B8: High AT 35mer dsDNA (dsDNA)
DNA 1: CATCATCAAAGACCAAAAGTAGATAAAACCACAAA
DNA 2: TTTGTGGTTTTATCTACTTTTGGTCTTTGATGATG
Q: For B8, which Kd [4] is on record?
A: < 5 nM

B9: Random 65mer dsDNA (dsDNA)
DNA 1: ATTCTCCAGGGCGGCCGCGTATAGGGTCCATCAGAATTCGGATGAACTCGGTGTGAAGAAAGATC
DNA 2: GATCTTTCTTCACACCGAGTTCATCCGAATTCTGATGGACCCTATACGCGGCCGCCCTGGAGAAT
Q: How did the Kd [4] turn out when B9 was run?
A: < 5 nM

B10: Random 35mer ssDNA (ssDNA)
DNA: ATAGGGTCCATCAGAATTCGGATGAACTCGGTGTG
Q: With B10 as the molecule, how does the Kd [3] read?
A: 51 ± 9 nM
